Data from patent US20220324928, “Zinc Finger Protein Transcription Factors for Repressing Alpha-Synuclein Expression” (Sangamo Therapeutics, Inc., published 2022).

Columns and labels:
Assay in all cases: cell_activity; SNCA mRNA repression at highest dose
Conditions in all cases: tags: NLS, C-terminal KOX1 KRAB
[1] = biological target: ZFP-TF SBS-82090 (Artificial Sequence)
[2] = biological target: ZFP-TF SBS-82092 (Artificial Sequence)
[3] = biological target: ZFP-TF SBS-82107 (Artificial Sequence)
Chain of ZFP-TF SBS-82107 (Artificial Sequence) (chain, as listed by the source): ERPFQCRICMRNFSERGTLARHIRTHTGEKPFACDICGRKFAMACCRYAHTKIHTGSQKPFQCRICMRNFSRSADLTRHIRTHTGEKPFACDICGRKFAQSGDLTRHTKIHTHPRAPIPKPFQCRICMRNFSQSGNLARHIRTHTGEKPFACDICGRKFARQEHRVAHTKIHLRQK

[4] = biological target: ZFP-TF SBS-82150 (Artificial Sequence)
Chain of ZFP-TF SBS-82150 (Artificial Sequence) (chain, as listed by the source): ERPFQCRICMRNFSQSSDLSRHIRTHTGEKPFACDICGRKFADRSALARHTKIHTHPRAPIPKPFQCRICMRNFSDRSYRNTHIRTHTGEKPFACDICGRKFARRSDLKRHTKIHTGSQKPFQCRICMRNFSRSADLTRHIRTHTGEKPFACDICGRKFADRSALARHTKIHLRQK

[5] = biological target: ZFP-TF SBS-82190 (Artificial Sequence)
Chain of ZFP-TF SBS-82190 (Artificial Sequence) (chain, as listed by the source): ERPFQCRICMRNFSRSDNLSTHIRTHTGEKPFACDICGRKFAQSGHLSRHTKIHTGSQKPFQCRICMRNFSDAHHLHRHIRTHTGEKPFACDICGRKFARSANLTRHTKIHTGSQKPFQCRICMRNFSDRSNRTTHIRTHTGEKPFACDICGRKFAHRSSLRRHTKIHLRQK

[6] = biological target: ZFP-TF SBS-82197 (Artificial Sequence)
Chain of ZFP-TF SBS-82197 (Artificial Sequence) (chain, as listed by the source): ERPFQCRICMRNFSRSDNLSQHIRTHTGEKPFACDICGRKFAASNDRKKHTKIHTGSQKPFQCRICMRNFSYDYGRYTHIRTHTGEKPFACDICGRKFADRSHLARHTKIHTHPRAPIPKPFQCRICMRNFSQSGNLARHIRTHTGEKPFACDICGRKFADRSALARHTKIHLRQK

[7] = biological target: ZFP-TF SBS-82215 (Artificial Sequence)
Chain of ZFP-TF SBS-82215 (Artificial Sequence) (chain, as listed by the source): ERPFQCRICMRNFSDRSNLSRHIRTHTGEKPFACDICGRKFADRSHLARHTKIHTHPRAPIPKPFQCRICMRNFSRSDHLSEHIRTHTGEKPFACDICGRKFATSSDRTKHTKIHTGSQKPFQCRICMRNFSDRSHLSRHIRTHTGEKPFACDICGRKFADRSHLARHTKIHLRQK

[8] = biological target: ZFP-TF SBS-82225 (Artificial Sequence)
Chain of ZFP-TF SBS-82225 (Artificial Sequence) (chain, as listed by the source): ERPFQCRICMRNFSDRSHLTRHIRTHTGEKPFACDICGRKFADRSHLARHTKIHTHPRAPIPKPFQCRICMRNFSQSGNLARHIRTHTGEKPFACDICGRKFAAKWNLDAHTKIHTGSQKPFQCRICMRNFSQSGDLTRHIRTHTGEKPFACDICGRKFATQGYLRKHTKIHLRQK

[9] = biological target: ZFP-TF SBS-82294 (Artificial Sequence)
Chain of ZFP-TF SBS-82294 (Artificial Sequence) (chain, as listed by the source): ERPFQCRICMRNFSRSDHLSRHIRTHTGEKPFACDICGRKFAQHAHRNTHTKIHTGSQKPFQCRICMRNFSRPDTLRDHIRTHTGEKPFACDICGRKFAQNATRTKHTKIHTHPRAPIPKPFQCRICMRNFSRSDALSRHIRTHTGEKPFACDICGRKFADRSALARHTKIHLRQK

Chain of ZFP-TF SBS-82090 (Artificial Sequence) (chain, as listed by the source): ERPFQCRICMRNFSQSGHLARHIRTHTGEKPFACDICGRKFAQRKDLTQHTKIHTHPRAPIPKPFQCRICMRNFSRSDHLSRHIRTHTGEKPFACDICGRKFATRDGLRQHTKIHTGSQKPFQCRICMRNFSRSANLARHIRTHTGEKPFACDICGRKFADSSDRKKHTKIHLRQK
Chain of ZFP-TF SBS-82092 (Artificial Sequence) (chain, as listed by the source): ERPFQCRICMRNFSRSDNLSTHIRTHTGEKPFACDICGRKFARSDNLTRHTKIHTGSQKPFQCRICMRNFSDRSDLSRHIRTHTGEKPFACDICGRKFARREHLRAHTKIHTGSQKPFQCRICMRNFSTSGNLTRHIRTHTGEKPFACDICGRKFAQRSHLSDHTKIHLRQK

B1: SNCA site 82090 (dsDNA)
DNA 1: ATCCGAGATAGGGACGAGGAG
DNA 2: CTCCTCGTCCCTATCTCGGAT
[1]
  activity: ≥ 95 % repression

B2: SNCA site 82092 (dsDNA)
DNA 1: CCGAGATAGGGACGAGGAGC
DNA 2: GCTCCTCGTCCCTATCTCGG
[2]
  activity: ≥ 95 % repression

B3: SNCA site 82107 (dsDNA)
DNA 1: CAGGGAAAGCAGCGAGCGCCG
DNA 2: CGGCGCTCGCTGCTTTCCCTG
[3]
  activity: ≥ 95 % repression

B4: SNCA site 82150 (dsDNA)
DNA 1: CGTCGCGGCGCTCGGTCGCTC
DNA 2: GAGCGACCGAGCGCCGCGACG
[4]
  activity: ≥ 95 % repression

B5: SNCA site 82190 (dsDNA)
DNA 1: CGCTCACGAGGGTGGAAAGG
DNA 2: CCTTTCCACCCTCGTGAGCG
[5]
  activity: ≥ 95 % repression

B6: SNCA site 82197 (dsDNA)
DNA 1: CGTCGAATGGCCACTCCCAGT
DNA 2: ACTGGGAGTGGCCATTCGACG
[6]
  activity: ≥ 95 % repression

B7: SNCA site 82215 (dsDNA)
DNA 1: AGGCGGCACCCGGGGGGGACT
DNA 2: AGTCCCCCCCGGGTGCCGCCT
[7]
  activity: ≥ 95 % repression

B8: SNCA site 82225 (dsDNA)
DNA 1: GAGCGCACAGGAAGGGCGGAG
DNA 2: CTCCGCCCTTCCTGTGCGCTC
[8]
  activity: ≥ 95 % repression

B9: SNCA site 82294 (dsDNA)
DNA 1: GGTCGTGGGCACCGGGAGGGG
DNA 2: CCCCTCCCGGTGCCCACGACC
[9]
  activity: ≥ 95 % repression
